Reference: patent publication US20110142842A1 (MEDINNOVA, published 2011)

These binders were tested against HLA-A*0201 (human, UniProt A*02:01) (assay: REVEAL MHC binding assay (ProImmune)).

Row | Binder | % Pass/fail control
1 | YLLDGILFI [Peptide ID 1 YLLDGILFI (TCR_TV)] | 201 % of pass/fail control
2 | PLWGGIMYI [Peptide ID 10 PLWGGIMYI (CD20)] | 155 % of pass/fail control
3 | VLWHWLLRT [Peptide ID 105 VLWHWLLRT (CD19)] | 337 % of pass/fail control
4 | HMRPLAIWL [Peptide ID 106 HMRPLAIWL (CD19)] | 56.2 % of pass/fail control
5 | YLHVALDLL [Peptide ID 107 YLHVALDLL (MPO)] | 278 % of pass/fail control
6 | LLFLTPMEV [Peptide ID 108 LLFLTPMEV (CD19)] | 283 % of pass/fail control
7 | KIVEWDWKI [Peptide ID 109 KIVEWDWKI (CD48)] | 236 % of pass/fail control
8 | VIVGSIIMV [Peptide ID 110 VIVGSIIMV (CD53)] | 113 % of pass/fail control
9 | FVANAIIHL [Peptide ID 111 FVANAIIHL (CD52)] | 276 % of pass/fail control
10 | RLLFFLLFL [Peptide ID 112 RLLFFLLFL (CD19)] | 42.3 % of pass/fail control
11 | LLLREHNRL [Peptide ID 113 LLLREHNRL (MPO)] | 195 % of pass/fail control
12 | ALAVISFLL [Peptide ID 114 ALAVISFLL (CD7)] | 221 % of pass/fail control
13 | SLQSGILTL [Peptide ID 11 SLQSGILTL (CD127)] | 181 % of pass/fail control
14 | ALYDKTKRI [Peptide ID 115 ALYDKTKRI (TdT_TV2)] | 260 % of pass/fail control
15 | WMGGVSEPL [Peptide ID 116 WMGGVSEPL (MPO)] | 199 % of pass/fail control
16 | CMAGARVQV [Peptide ID 117 CMAGARVQV (CD50)] | 158 % of pass/fail control
17 | KLSLGLPGL [Peptide ID 118 KLSLGLPGL (CD19)] | 209 % of pass/fail control
18 | LLFIVVLTL [Peptide ID 119 LLFIVVLTL (FLT3)] | 114 % of pass/fail control
19 | VMNGTDPEL [Peptide ID 120 VMNGTDPEL (CD2)] | 200 % of pass/fail control
20 | LLMVFVALL [Peptide ID 121 LLMVFVALL (CD2)] | 114 % of pass/fail control
21 | SLTLGNVFV [Peptide ID 122 SLTLGNVFV (CD53)] | 150 % of pass/fail control
22 | TVQEGLCVL [Peptide ID 123 TVQEGLCVL (CD33)] | 75.2 % of pass/fail control
23 | SLFAAISGM [Peptide ID 124 SLFAAISGM (CD20)] | 203 % of pass/fail control
24 | FLVNTVLWV [Peptide ID 12 FLVNTVLWV (CD64)] | 133 % of pass/fail control
25 | VLAEASASQ [Peptide ID 125 VLAEASASQ (FLT3)] | 103 % of pass/fail control
26 | LLQRPGLQL [Peptide ID 126 LLQRPGLQL (CD64)] | 231 % of pass/fail control
27 | ALPAALAVI [Peptide ID 127 ALPAALAVI (CD7)] | 264 % of pass/fail control
28 | SMFHVTLKI [Peptide ID 128 SMFHVTLKI (CLL-1)] | 307 % of pass/fail control

Row | Binder | % Pass/fail control
29 | KLGGDLLRA [Peptide ID 129 KLGGDLLRA (CD18)] | 229 % of pass/fail control
30 | ILLLVIWKA [Peptide ID 130 ILLLVIWKA (CD18)] | 56.7 % of pass/fail control
31 | FLQDTFPQV (Modified peptide) [Peptide ID 132 FLQDTFPQV (CD127, modified peptide)] | 216 % of pass/fail control
32 | FLPDAFVTV (Modified peptide) [Peptide ID 133 FLPDAFVTV (TdT, modified peptide)] | 204 % of pass/fail control
33 | YLMDLSYSV (Modified peptide) [Peptide ID 134 YLMDLSYSV (CD18, modified peptide)] | 242 % of pass/fail control
34 | LLDPKLCYL [Peptide ID 13 LLDPKLCYL (TCR_TV)] | 204 % of pass/fail control
35 | LLQPFMFRV (Modified peptide) [Peptide ID 135 LLQPFMFRV (MPO, modified peptide)] | 329 % of pass/fail control
36 | LLIPAGIYV (Modified peptide) [Peptide ID 136 LLIPAGIYV (CD20, modified peptide)] | 275 % of pass/fail control
37 | ELDEELHYV (Modified peptide) [Peptide ID 137 ELDEELHYV (CD33, modified peptide)] | 218 % of pass/fail control
38 | LLLSGAARV (Modified peptide) [Peptide ID 138 LLLSGAARV (PR3, modified peptide)] | 210 % of pass/fail control
39 | GLYQGLSTV (Modified peptide) [Peptide ID 140 GLYQGLSTV (TCR_TV, modified peptide)] | 214 % of pass/fail control
40 | FLQPLFLVV (Modified peptide) [Peptide ID 141 FLQPLFLVV (HA-1, modified peptide)] | 270 % of pass/fail control
41 | LLAPRFLEV (Modified peptide) [Peptide ID 142 LLAPRFLEV (CD50, modified peptide)] | 218 % of pass/fail control
42 | ALARGLPGV (Modified peptide) [Peptide ID 143 ALARGLPGV (CD7, modified peptide)] | 297 % of pass/fail control
43 | YLRPGQAAV (Modified peptide) [Peptide ID 144 YLRPGQAAV (CD18, modified peptide)] | 227 % of pass/fail control
44 | YLLRVIETL [Peptide ID 14 YLLRVIETL (HA-1)] | 179 % of pass/fail control
45 | SLSEEVTYV (Modified peptide) [Peptide ID 145 SLSEEVTYV (CLL-1, modified peptide)] | 191 % of pass/fail control
46 | GLADVAVGV (Modified peptide) [Peptide ID 146 GLADVAVGV (CD11a, modified peptide)] | 213 % of pass/fail control
47 | LLAEVTLAV (Modified peptide) [Peptide ID 147 LLAEVTLAV (CD53, modified peptide)] | 254 % of pass/fail control
48 | LLWAGALAV (Modified peptide) [Peptide ID 148 LLWAGALAV (CD33, modified peptide)] | 272 % of pass/fail control
49 | ILYPINILV (Modified peptide) [Peptide ID 149 ILYPINILV (CD11a, modified peptide)] | 321 % of pass/fail control
50 | ELLDVSWLV (Modified peptide) [Peptide ID 150 ELLDVSWLV (TdT, modified peptide)] | 239 % of pass/fail control
51 | SLYGPGSYL [Peptide ID 15 SLYGPGSYL (HA-1)] | 198 % of pass/fail control
52 | FLPDAFVTM [Peptide ID 16 FLPDAFVTM (TdT)] | 164 % of pass/fail control
53 | VLDIYGFEV [Peptide ID 18 VLDIYGFEV (HA-2)] | 161 % of pass/fail control
54 | SLFLGILSV (also called peptide #19; pep 19) [Peptide ID 19 SLFLGILSV (CD20)] | 160 % of pass/fail control
55 | SLAQVVMKV [Peptide ID 20 SLAQVVMKV (CD11a)] | 155 % of pass/fail control
